The values below come from patent US20230303715A1.

Targets include FcγRIIaR (UniProt P12318); FcγRI (UniProt P12314); FcγRIIaH (UniProt P12318); FcγRIIb (UniProt P31994).
Common to all, as to test: SPR Biacore, Ab on HER2 chip

Chain of FcγRI (P12314 16-292 limits assumed): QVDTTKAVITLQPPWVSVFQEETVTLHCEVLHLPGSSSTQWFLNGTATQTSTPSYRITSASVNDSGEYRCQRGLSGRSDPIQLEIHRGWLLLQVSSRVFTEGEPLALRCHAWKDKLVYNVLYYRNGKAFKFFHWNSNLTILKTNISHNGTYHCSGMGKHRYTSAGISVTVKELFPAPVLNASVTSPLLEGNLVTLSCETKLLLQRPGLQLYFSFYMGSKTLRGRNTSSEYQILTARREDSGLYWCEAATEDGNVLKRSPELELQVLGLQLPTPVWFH
Chain of FcγRIIb (P31994 43-217 limits assumed): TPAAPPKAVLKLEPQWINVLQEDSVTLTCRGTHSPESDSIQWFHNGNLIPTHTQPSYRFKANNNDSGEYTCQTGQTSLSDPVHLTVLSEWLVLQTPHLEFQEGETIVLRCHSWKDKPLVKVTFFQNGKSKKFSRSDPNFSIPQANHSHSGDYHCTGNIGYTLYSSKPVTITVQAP
Chain of FcγRIIaR (P12318 34-217 H167R limits assumed): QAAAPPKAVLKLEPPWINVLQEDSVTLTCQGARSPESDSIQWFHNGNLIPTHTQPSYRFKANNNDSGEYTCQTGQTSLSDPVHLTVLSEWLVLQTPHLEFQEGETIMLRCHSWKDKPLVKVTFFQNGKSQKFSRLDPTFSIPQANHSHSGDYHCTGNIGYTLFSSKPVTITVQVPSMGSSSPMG
Chain of FcγRIIaH (P12318 34-217 limits assumed): as the sequence (P12318 34-217 H167R limits assumed) above, with R134H counted along it

B1: one-armed trastuzumab antibody, Scaffold 9, variant v27319 (L242C_I336C/V308I) (antibody, part only; not given: Trastuzumab Fab arm, not shown: another chain or arm of the molecule)
Fc 1: APEFLNGPSVFCFPPKPKDTLMISRTPEVTCVVVDVSQEDPEVKFNWYVDGVEVHNAKTKPREEQYNSTYRVVSVLTILHQDWLNGKEYKCKVSNKGLPKSIEKTCSKAKGQPREPQVYVYPPSRDELTKNQVSLTCLVKGFYPSDIAVEWESNGQPENNYKTTPPVLDSDGSFALVSKLTVDKSRWQQGNVFSCSVMHEALHNHYTQKSLSLSPGK
Fc 2: APELLDGPDVFCFPPKPKDTLMISRTPEVTCVVVDLADEDPEVKFNWYVDGVEVHNAKTKPREEQYNSTYRVVSVLTILHQDWLNGKEYKCKVSNKALPAPIEKTCSKAKGQPREPQVYVLPPSRDELTKNQVSLLCLVKGFYPSDIAVEWESNGQPENNYLTWPPVLDSDGSFFLYSKLTVDKSRWQQGNVFSCSVMHEALHNHYTQKSLSLSPGK
modifications: Engineered intrachain disulphide C242-C336 in each Fc chain.
On to B1, for which the Kd in the assay with FcγRIIaR is 61.4 nM; in the assay with FcγRI, 0.532 nM; with FcγRIIaH, 575 nM; with FcγRIIb it was 15.5 nM.

By Kd is commonly meant the free concentration of one partner at which half of the binding sites on the other are occupied at equilibrium, for simple one-to-one binding. A lower Kd goes with higher affinity.
